Consider one molecule from patent US7745147 (VIRANATIVE, dated 2010).

Some results are limits rather than exact numbers.

Assay [1] deals with concentrated crude leukocyte interferon alpha. Briefly: capacity of immunoaffinity gel, 7 mg antibody/mL CNBr-activated Sepharose FF.
Assay [2] addresses T1, human interferon alpha 16 (human, UniProt P05015 24-189).
T1 construct: also called α16; IFN-α16
Briefly: 3-A3-2 immunoaffinity column, 10,000 IU load; Daudi cell anti-proliferative assay of fractions.

The target in a further assay is T2, human interferon alpha 5 (human, UniProt P01569 24-189, limits assumed).
T2 construct: also called α5; IFN-α5
The description is as above.

In the next assay the target is T3, human interferon alpha 1 (human, UniProt P0DY56 24-189).
T3 construct: also called α1; IFN-α1
Briefly: immunoaffinity chromatography (Examples 1, 3, 4 and 5).

Assay [3] addresses concentrated crude leukocyte interferon alpha. Briefly: pilot-scale immunoaffinity chromatography, crude interferon batch K-543, experiment P-429.
The target is the same in assay [4]. Briefly: immunoaffinity chromatography, antibody on CNBr-Sepharose; interferon alpha ELISA of fractions; second row for this antibody. On the technique in general: ELISA stands for enzyme-linked immunosorbent assay.
The target is the same in assay [5]. Briefly: immunoaffinity chromatography, antibody on CNBr-Sepharose; interferon alpha ELISA of fractions.
Assay [6] has as its target T4, human interferon alpha 14 (human, UniProt P01570 24-189).
T4 construct: One entry serves both the natural leukocyte protein and the bought recombinant protein; also called α14; IFN-α14
Briefly: immunoaffinity column loaded with crude leukocyte interferon alpha; RP-HPLC of eluate.
Procedure: The antibodies were all bound to CNBr-activated Sepharose gel. […] Impurities and unbound material were removed from the column by washing with buffer. Interferon alpha was eluted with citric-acid buffer, pH2. Unbound, flow-through fractions, and eluate fractions were analysed for interferon alpha using a specific ELISA. The eluate fraction was analysed for its complement of interferon alpha proteins using reversed-phase HPLC (RP-HPLC). Interferon alpha specific activity was determined using a cytopathic protective effect assay with MDBK cells. All samples were analysed twice. The experiments were repeated with a second batch of concentrated crude leukocyte interferon alpha.
Rather, the interferon alpha protein pattern is compared to assess whether all the expected peaks are present.

For assay [7], the target named is concentrated crude leukocyte interferon alpha. Briefly: immunoaffinity chromatography of crude leukocyte interferon alpha (Example 1).
Assay [8] shares this target. Briefly: pilot-scale immunoaffinity chromatography, crude interferon from lab fermenter, experiment P-434.

B1: Monoclonal antibody 3-A3-2 (antibody, mouse IgG1, V domains shown)
VH: QVQLQESGTVLARPGASVKMSCKASGYSFTTYWMHWVKQRPGQGLEWIGVIYPGNGDTTYNQKFKDKAKLTAVTSANTAYMELSSLTNEDSAVYFCTRNYKYDYYTMDYWGQGTTVTVSS
VL: DIVLTQSPASLAVSLGQRATISCRASKSVSTSGHSYMHWYQQKPGQTPKLLIYLASNLESGVPARFSGSGSGTDFTLNIHPVEEEDAATYYCQHSGELPFTFGSGTKLEIK
notes: Murine IgG1/kappa from hybridoma 3-A3-2 (ECACC 05030201); also called monoclonal 3-A3-2; 3A32 Ab
B1 displayed an interferon capacity in [1] of 22.5 MIU/ml gel. The binding result (in [2]; with human interferon alpha 5; with human interferon alpha 1; in assay [6]) was “binds” in each case. Besides, the figures for the IFN-α eluate yield (%) in assay [3] and in [8] were 73% and 70%, respectively. The Flow-through (%) is 5% in [4], 1% in assay [5] and < 5% in assay [7]. Besides, the eluate (IU) in assay [4] was found to be 17 IU; in [5], 16.5 IU. The recovery (%) in assay [4] amounted to 61%; in assay [5], 66%.
